Usually IC50 stands for the concentration needed to halve the response being measured. Read a high IC50 as lower potency.

For assay [1], the target named is HLA receptor A11 (HLA-A*1101), purified from transfected human cells (human). Description: competitive binding assay: unlabeled test peptide against 5 nM 125I-labeled standard peptide on purified HLA with 1 uM b2m, size exclusion HPLC, 68 h incubation. In general terms: SEC sorts molecules by how far they enter the pores of the column.
Assay [2] has as its target HLA receptor A1 (HLA-A*0101), purified from transfected human cells (human). Kind of assay: competitive binding assay: unlabeled test peptide against 5 nM 125I-labeled standard peptide on purified HLA with 1 uM b2m, size exclusion HPLC, 51 h incubation. The settings on record: remark: other sources report otherwise.

In turn, HTMLCMCCK (modifications not checked) [… (SEQ ID NO:122), HPV strain 18 E7 59-67] registered an IC50 in assay [1] of 67 nM.
On to ISEYRHYCY (modifications not checked) [… (SEQ ID NO:70), HPV 16 E6 peptide], for which, in assay [2], the IC50 stood at 49 nM.
